The record followed here is patent US20260166085A1 (BEAM THERAPEUTICS, published 2026).

What is called Kd is the free concentration of one partner at which half of the binding sites on the other are occupied at equilibrium, for simple one-to-one binding. What is called koff is a measure of how fast the partners let go of each other. Lower therefore signals a long-lived complex. By kon is commonly meant the rate constant with which the complex forms. Low values mean slower complex formation, high ones faster complex formation.

Test [1] addresses CC200 variant of CD117 (S261G) purified protein (human, UniProt P10721 26-520, limits assumed). Description: binding kinetics grade, FIGS. 55A-55C.
In test [2] the target is T1, CC128 variant of CD117 (Y259C + N260D) purified protein (human, UniProt P10721 26-520, limits assumed).
T1 construct: also called CC128-edited CD117 as purified protein
Kind of test: binding kinetics grade, FIGS. 55A-55C.

Test [3] deals with T2, Wild type CD117 purified protein (human, UniProt P10721 26-520, limits assumed).
T2 construct: Protein used in BLI/kinetics and cryo-EM; also called wt CD117; Wt CD117
Kind of test: binding kinetics, FIGS. 45A-45K.

T2 sequence (P10721 26-520 limits assumed): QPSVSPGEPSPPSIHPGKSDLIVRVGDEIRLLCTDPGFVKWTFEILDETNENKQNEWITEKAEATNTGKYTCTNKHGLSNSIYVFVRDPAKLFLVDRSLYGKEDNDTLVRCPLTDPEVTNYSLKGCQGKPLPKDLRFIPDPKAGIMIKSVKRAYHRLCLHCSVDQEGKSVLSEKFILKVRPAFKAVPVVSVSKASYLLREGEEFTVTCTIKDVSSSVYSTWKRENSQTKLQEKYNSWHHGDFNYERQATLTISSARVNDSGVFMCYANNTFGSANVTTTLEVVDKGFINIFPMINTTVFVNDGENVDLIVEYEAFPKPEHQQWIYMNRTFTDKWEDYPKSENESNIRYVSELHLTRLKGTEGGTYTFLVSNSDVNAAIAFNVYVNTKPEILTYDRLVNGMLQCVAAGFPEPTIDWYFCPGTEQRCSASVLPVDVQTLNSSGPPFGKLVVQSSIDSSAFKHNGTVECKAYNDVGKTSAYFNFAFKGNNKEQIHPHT
Chain of CC200 variant of CD117 (S261G) purified protein (P10721 26-520 S261G limits assumed): as the sequence (P10721 26-520 limits assumed) above, with S236G counted along it
T1 sequence (P10721 26-520 Y259C/N260D limits assumed): as the sequence (P10721 26-520 limits assumed) above, with Y234C, N235D counted along it

B1: ABTx251 (antibody, human IgG1, kappa, V domains shown)
VH: QVQLVQSGAAVKKPGESLKISCKGSGYRFTSYWIGWVRQMPGKGLEWMGIIYPGDSDTRYSPSFQGQVTISAGKSISTAYLQWSSLKASDTAMYYCARHGRGYDGYEGAFDIWGQGTMVTVSS
VL: AIQLTQSPSSLSASVGDRVTITCRASQGISSALAWYQQKPGKAPKLLIYDASSLESGVPSRFSGSGSGTDFTLTISSLQPEDFATYYCQQFYSYPLTFGGGTKVEIKR
As to B1, the binding result in test [1] and in test [2] was “no binding” in each case.

B2: ABTx052 variant VL_F91T (antibody, human IgG1, V domains shown)
VH: QVQLVQSGAAVKKPGESLKISCKGSGYRFTSYWIGWVRQMPGKGLEWMGIIYPGDSDTRYSPSFQGQVTISAGKSISTAYLQWSSLKASDTAMYYCARHGRGYNGYEGAFDIWGQGTMVTVSS
VL: AIQLTQSPSSLSASVGDRVTITCRASQGISSALAWYQQKPGKAPKLLIYDASSLESGVPSRFSGSGSGTDFTLTISSLQPEDFATYYCQQTNSYPLTFGGGTKVEIK
In test [3], B2 came in with a Kd of 0.191 nM, an off-rate (koff) of 0.000104 s⁻¹ and a kon of 543000 M⁻¹ s⁻¹.

B3: ABTx052 variant VL_S93G (antibody, human IgG1, V domains shown)
VH: QVQLVQSGAAVKKPGESLKISCKGSGYRFTSYWIGWVRQMPGKGLEWMGIIYPGDSDTRYSPSFQGQVTISAGKSISTAYLQWSSLKASDTAMYYCARHGRGYNGYEGAFDIWGQGTMVTVSS
VL: AIQLTQSPSSLSASVGDRVTITCRASQGISSALAWYQQKPGKAPKLLIYDASSLESGVPSRFSGSGSGTDFTLTISSLQPEDFATYYCQQFNGYPLTFGGGTKVEIK
In test [3], B3 gave a dissociation constant (Kd) of 0.0716 nM, a dissociation rate constant (koff) of 4.81e-05 s⁻¹ and a kon of 671000 M⁻¹ s⁻¹.

B4: ABTx262 (antibody, human IgG1, kappa, V domains shown)
VH: QVQLVQSGAAVKKPGESLKISCKGSGYRFTSYWIGWVRQMPGKGLEWMGIIYPGDSDTRYSPSFQGQVTISAGKSISTAYLQWSSLKASDTAMYYCARHGRGYDAYEGAFDIWGQGTMVTVSS
VL: AIQLTQSPSSLSASVGDRVTITCRASQGISSALAWYQQKPGKAPKLLIYDASSLESGVPSRFSGSGSGTDFTLTISSLQPEDFATYYCQQFRSSPLTFGGGTKVEIKR
On to B4, for which the binding result in test [1] and in test [2] was “no binding” in each case.

B5: ABTx052 variant VH_G105A (antibody, human IgG1, V domains shown)
VH: QVQLVQSGAAVKKPGESLKISCKGSGYRFTSYWIGWVRQMPGKGLEWMGIIYPGDSDTRYSPSFQGQVTISAGKSISTAYLQWSSLKASDTAMYYCARHGRGYNAYEGAFDIWGQGTMVTVSS
VL: AIQLTQSPSSLSASVGDRVTITCRASQGISSALAWYQQKPGKAPKLLIYDASSLESGVPSRFSGSGSGTDFTLTISSLQPEDFATYYCQQFNSYPLTFGGGTKVEIKR
In test [3], B5 registered a dissociation constant (Kd) of 0.254 nM, a koff of 0.000153 s⁻¹ and a kon of 601000 M⁻¹ s⁻¹.

B6: ABTx270 (antibody, human IgG1, kappa, V domains shown)
VH: QVQLVQSGAAVKKPGESLKISCKGSGYRFTSYWIGWVRQMPGKGLEWMGIIYPGDSDTRYSPSFQGQVTISAGKSISTAYLQWSSLKASDTAMYYCARHGRGYDAYEGAFDIWGQGTMVTVSS
VL: AIQLTQSPSSLSASVGDRVTITCRASQGISSALAWYQQKPGKAPKLLIYDASSLESGVPSRFSGSGSGTDFTLTISSLQPEDFATYYCQQVRSYPLTFGGGTKVEIKR
Consider B6, for which the binding result in test [1] and in test [2] was “no binding” throughout.

B7: ABTx273 (antibody, human IgG1, kappa, V domains shown)
VH: QVQLVQSGAAVKKPGESLKISCKGSGYRFTSYWIGWVRQMPGKGLEWMGIIYPGDSDTRYSPSFQGQVTISAGKSISTAYLQWSSLKASDTAMYYCARHGRGYDGYEGAFDIWGQGTMVTVSS
VL: AIQLTQSPSSLSASVGDRVTITCRASQGISSALAWYQQKPGKAPKLLIYDASSLESGVPSRFSGSGSGTDFTLTISSLQPEDFATYYCQQFRSYPLTFGGGTKVEIKR
Consider B7, for which the binding result in test [1] and in test [2] was “no binding” throughout.

B8: ABTx261 (antibody, human IgG1, kappa, V domains shown)
VH: QVQLVQSGAAVKKPGESLKISCKGSGYRFTSYWIGWVRQMPGKGLEWMGIIYPGDSDTKYSPSFQGQVTISAGKSISTAYLQWSSLKASDTAMYYCARHGRGYDAYEGAFDIWGQGTMVTVSS
VL: AIQLTQSPSSLSASVGDRVTITCRASQGISSALAWYQQKPGKAPKLLIYDASSLESGVPSRFSGSGSGTDFTLTISSLQPEDFATYYCQQTRSYPLTFGGGTKVEIKR
With B8, the binding result in test [1] and in test [2] was “no binding” throughout.

B9: ABTx272 (antibody, human IgG1, kappa, V domains shown)
VH: QVQLVQSGAAVKKPGESLKISCKGSGYRFTSYWIGWVRQMPGKGLEWMGIIYPGDSDTKYSPSFQGQVTISAGKSISTAYLQWSSLKASDTAMYYCARHGRGYDGYDGAFDIWGQGTMVTVSS
VL: AIQLTQSPSSLSASVGDRVTITCRASQGISSALAWYQQKPGKAPKLLIYDASSLESGVPSRFSGSGSGTDFTLTISSLQPEDFATYYCQQVRSYPLTFGGGTKVEIKR
With B9, the binding result in test [1] and in test [2] was “no binding” each time.

B10: ABTx269 (antibody, human IgG1, kappa, V domains shown)
VH: QVQLVQSGAAVKKPGESLKISCKGSGYRFTSYWIGWVRQMPGKGLEWMGIIYPGDSDTKYSPSFQGQVTISAGKSISTAYLQWSSLKASDTAMYYCARHGRGYDGYEGAFDIWGQGTMVTVSS
VL: AIQLTQSPSSLSASVGDRVTITCRASQGISSALAWYQQKPGKAPKLLIYDASSLESGVPSRFSGSGSGTDFTLTISSLQPEDFATYYCQQVYSYPLTFGGGTKVEIKR
With B10, the binding result in test [1] and in test [2] was “no binding” in each case.

B11: ABTx256 (antibody, human IgG1, kappa, V domains shown)
VH: QVQLVQSGAAVKKPGESLKISCKGSGYRFTSYWIGWVRQMPGKGLEWMGIIYPGDSDTRYSPSFQGQVTISAGKSISTAYLQWSSLKASDTAMYYCARHGRGYDAYEGAFDIWGQGTMVTVSS
VL: AIQLTQSPSSLSASVGDRVTITCRASQGISSALAWYQQKPGKAPKLLIYDASSLESGVPSRFSGSGSGTDFTLTISSLQPEDFATYYCQQTYSYPLTFGGGTKVEIKR
With B11, the binding result in test [1] and in test [2] was “no binding” in each case.

B12: ABTx258 (antibody, human IgG1, kappa, V domains shown)
VH: QVQLVQSGAAVKKPGESLKISCKGSGYRFTSYWIGWVRQMPGKGLEWMGIIYPGDSDTKYSPSFQGQVTISAGKSISTAYLQWSSLKASDTAMYYCARHGRGYDAYEGAFDIWGQGTMVTVSS
VL: AIQLTQSPSSLSASVGDRVTITCRASQGISSALAWYQQKPGKAPKLLIYDASSLESGVPSRFSGSGSGTDFTLTISSLQPEDFATYYCQQVRSYPLTFGGGTKVEIKR
As for B12, the binding result in test [1] and in test [2] was “no binding” each time.

B13: ABTx265 (antibody, human IgG1, kappa, V domains shown)
VH: QVQLVQSGAAVKKPGESLKISCKGSGYRFTSYWIGWVRQMPGKGLEWMGIIYPGDSDTKYSPSFQGQVTISAGKSISTAYLQWSSLKASDTAMYYCARHGRGYDGYDGAFDIWGQGTMVTVSS
VL: AIQLTQSPSSLSASVGDRVTITCRASQGISSALAWYQQKPGKAPKLLIYDASSLESGVPSRFSGSGSGTDFTLTISSLQPEDFATYYCQQTRSYPLTFGGGTKVEIKR
In the case of B13, the binding result in test [1] and in test [2] was “no binding” in each case.

B14: ABTx052 variant VH_N104D (antibody, human IgG1, V domains shown)
VH: QVQLVQSGAAVKKPGESLKISCKGSGYRFTSYWIGWVRQMPGKGLEWMGIIYPGDSDTRYSPSFQGQVTISAGKSISTAYLQWSSLKASDTAMYYCARHGRGYDGYEGAFDIWGQGTMVTVSS
VL: AIQLTQSPSSLSASVGDRVTITCRASQGISSALAWYQQKPGKAPKLLIYDASSLESGVPSRFSGSGSGTDFTLTISSLQPEDFATYYCQQFNSYPLTFGGGTKVEIKR
On to B14, for which, in test [3], the Kd turned out to be 0.495 nM, the dissociation rate constant (koff) worked out at 0.000342 s⁻¹ and the kon is 691000 M⁻¹ s⁻¹.

B15: ABTx268 (antibody, human IgG1, kappa, V domains shown)
VH: QVQLVQSGAAVKKPGESLKISCKGSGYRFTSYWIGWVRQMPGKGLEWMGIIYPGDSDTKYSPSFQGQVTISAGKSISTAYLQWSSLKASDTAMYYCARHGRGYDGYEGAFDIWGQGTMVTVSS
VL: AIQLTQSPSSLSASVGDRVTITCRASQGISSALAWYQQKPGKAPKLLIYDASSLESGVPSRFSGSGSGTDFTLTISSLQPEDFATYYCQQVNSYPLTFGGGTKVEIKR
On to B15, for which the binding result in test [1] and in test [2] was “no binding” in each case.

B16: ABTx263 (antibody, human IgG1, kappa, V domains shown)
VH: QVQLVQSGAAVKKPGESLKISCKGSGYRFTSYWIGWVRQMPGKGLEWMGIIYPGDSDTKYSPSFQGQVTISAGKSISTAYLQWSSLKASDTAMYYCARHGRGYDGYDGAFDIWGQGTMVTVSS
VL: AIQLTQSPSSLSASVGDRVTITCRASQGISSALAWYQQKPGKAPKLLIYDASSLESGVPSRFSGSGSGTDFTLTISSLQPEDFATYYCQQVYSYPLTFGGGTKVEIKR
On to B16, for which the binding result in test [1] and in test [2] was “no binding” each time.

B17: ABTx267 (antibody, human IgG1, kappa, V domains shown)
VH: QVQLVQSGAAVKKPGESLKISCKGSGYRFTSYWIGWVRQMPGKGLEWMGIIYPGDSDTKYSPSFQGQVTISAGKSISTAYLQWSSLKASDTAMYYCARHGRGYDAYDGAFDIWGQGTMVTVSS
VL: AIQLTQSPSSLSASVGDRVTITCRASQGISSALAWYQQKPGKAPKLLIYDASSLESGVPSRFSGSGSGTDFTLTISSLQPEDFATYYCQQTNSSPLTFGGGTKVEIKR
For B17, the binding result in test [1] and in test [2] was “no binding” throughout.
